Measured values reported in paper PMC4465127 (Nature Communications, 2015).

Assays:
[1] = biological target: the molecule itself; test: SEC; unliganded sLET-23 during initial purification; Superose 6 10/300 GL, 10 mM Hepes pH 8.0, 150 mM NaCl
[2] = biological target: the molecule itself; test: AUC; sedimentation equilibrium, without ligand; 1 to 8 μM receptor, 10 mM Hepes pH 8.0, 150 mM NaCl, 20 °C, three speeds; dimer to monomers
[3] = biological target: the molecule itself; test: SAXS; home source, I(0)/c, without ligand; 4 °C, pH 8.0, 1.2 to 5 mg/ml protein
[4] = biological target: the molecule itself; test: AUC; sedimentation equilibrium with 50-70 μM LIN-3^EGF added; 1 to 8 μM receptor, 10 mM Hepes pH 8.0, 150 mM NaCl, 20 °C, three speeds; dimer to monomers

B1: LET-23 extracellular region (sLET-23) (domain or fragment, C. elegans, UniProt P24348 21-819, looked up)
chain: FGNSNAQLWKRCVSPQDCLCSGTTNGISRYGTGNILEDLETMYRGCRRVYGNLEITWIEANEIKKWRESTNSTVDPKNEDSPLKSINFFDNLEEIRGSLIIYRANIQKISFPRLRVIYGDEVFHDNALYIHKNDKVHEVVMRELRVIRNGSVTIQDNPKMCYIGDKIDWKELLYDPDVQKVETTNSHQHCYQNGKSMAKCHESCNDKCWGSGDNDCQRVYRSVCPKSCSQCFYSNSTSSYECCDSACLGGCTGHGPKNCIACSKYELDGICIETCPSRKIFNHKTGRLVFNPDGRYQNGNHCVKECPPELLIENDVCVRHCSDGHHYDATKDVRECEKCRSSSCPKICTVDGHLTNETLKNLEGCEQIDGHLIIEHAFTYEQLKVLETVKIVSEYITIVQQNFYDLKFLKNLQIIEGRKLHNVRWALAIYQCDDLEELSLNSLKLIKTGAVLIMKNHRLCYVSKIDWSSIITSKGKDNKPSLAIAENRDSKLCETEQRVCDKNCNKRGCWGKEPEDCLECKTWKSVGTCVEKCDTKGFLRNQTSMKCERCSPECETCNGLGELDCLTCRHKTLYNSDFGNRMECVHDCPVSHFPTQKNVCEKCHPTCYDNGCTGPDSNLGYGGCKQCKYAVKYENDTIFCLQSSGMNNVCVENDLPNYYISTYDTEGVIETHCEKCSISCKTCSSAGRNVVQNKCVCKHVEYQPNPSERICMDQCPVNSFMVPDTNNTVCKKCHHECDQNYHCANGQSTGCQKCKNFTVFKGDIAQCVSECPKNLPFSNPANGECLDYDIASRQRKTRM
notes: signal peptide in the construct; LET-23, the C. elegans EGFR orthologue, extracellular region with domains I-V; Glycosylated (six predicted N-glycosylation sites); Constitutive dimer by SEC and SE-AUC; also called isolated LET-23 extracellular region; C. elegans EGFR extracellular region; source: Sf9 cells (baculovirus), purified from conditioned medium (Ni-NTA, cation exchange, Superose 6)
stoichiometry N [1]: 2
Kd [2]: < 1 µM

B2: sLET-23ΔV (LET-23 extracellular region with domain V deleted) (domain or fragment, C. elegans, UniProt P24348 21-645, looked up)
chain: FGNSNAQLWKRCVSPQDCLCSGTTNGISRYGTGNILEDLETMYRGCRRVYGNLEITWIEANEIKKWRESTNSTVDPKNEDSPLKSINFFDNLEEIRGSLIIYRANIQKISFPRLRVIYGDEVFHDNALYIHKNDKVHEVVMRELRVIRNGSVTIQDNPKMCYIGDKIDWKELLYDPDVQKVETTNSHQHCYQNGKSMAKCHESCNDKCWGSGDNDCQRVYRSVCPKSCSQCFYSNSTSSYECCDSACLGGCTGHGPKNCIACSKYELDGICIETCPSRKIFNHKTGRLVFNPDGRYQNGNHCVKECPPELLIENDVCVRHCSDGHHYDATKDVRECEKCRSSSCPKICTVDGHLTNETLKNLEGCEQIDGHLIIEHAFTYEQLKVLETVKIVSEYITIVQQNFYDLKFLKNLQIIEGRKLHNVRWALAIYQCDDLEELSLNSLKLIKTGAVLIMKNHRLCYVSKIDWSSIITSKGKDNKPSLAIAENRDSKLCETEQRVCDKNCNKRGCWGKEPEDCLECKTWKSVGTCVEKCDTKGFLRNQTSMKCERCSPECETCNGLGELDCLTCRHKTLYNSDFGNRMECVHDCPVSHFPTQKNVCEKCHPTCYDNGCTGPDSNLGYGGCK
notes: signal peptide in the construct; LET-23 of C. elegans, extracellular domains I-IV (domain V deleted); Dimer by SEC-MALS, SE-AUC and SAXS; source: Sf9 cells (baculovirus), purified from conditioned medium (Ni-NTA, cation exchange, Superose 6)
stoichiometry N [3]: 2

B3: sLET-23ΔIV/V (LET-23 extracellular region with domains IV and V deleted) (domain or fragment, C. elegans, UniProt P24348 21-539, looked up)
chain: FGNSNAQLWKRCVSPQDCLCSGTTNGISRYGTGNILEDLETMYRGCRRVYGNLEITWIEANEIKKWRESTNSTVDPKNEDSPLKSINFFDNLEEIRGSLIIYRANIQKISFPRLRVIYGDEVFHDNALYIHKNDKVHEVVMRELRVIRNGSVTIQDNPKMCYIGDKIDWKELLYDPDVQKVETTNSHQHCYQNGKSMAKCHESCNDKCWGSGDNDCQRVYRSVCPKSCSQCFYSNSTSSYECCDSACLGGCTGHGPKNCIACSKYELDGICIETCPSRKIFNHKTGRLVFNPDGRYQNGNHCVKECPPELLIENDVCVRHCSDGHHYDATKDVRECEKCRSSSCPKICTVDGHLTNETLKNLEGCEQIDGHLIIEHAFTYEQLKVLETVKIVSEYITIVQQNFYDLKFLKNLQIIEGRKLHNVRWALAIYQCDDLEELSLNSLKLIKTGAVLIMKNHRLCYVSKIDWSSIITSKGKDNKPSLAIAENRDSKLCETEQRVCDKNCNKRGCWGKEPEDCLE
notes: signal peptide in the construct; LET-23 of C. elegans, extracellular domains I-III (domains IV and V deleted); source: Sf9 cells (baculovirus), purified from conditioned medium (Ni-NTA, cation exchange, Superose 6)
Kd [2]: 30 µM
Kd [4]: 5 µM
